Target: the molecule itself
Assay: velocity gradient sedimentation

B1: wild-type HTLV-1 envelope precursor glycoprotein (natural protein, UniProt P03381 21-488, looked up)
chain: DYSPSCCTLTIGVSSYHSKPCNPAQPVCSWTLDLLALSADQALQPPCPNLVSYSSYHATYSLYLFPHWTKKPNRNGGGYYSASYSDPCSLKCPYLGCQSWTCPYTGAVSSPYWKFQHDVNFTQEVSRLNINLHFSKCGFPFSLLVDAPGYDPIWFLNTEPSQLPPTAPPLLPHSNLDHILEPSIPWKSKLLTLVQLTLQSTNYTCIVCIDRASLSTWHVLYSPNVSVPSSSSTPLLYPSLALPAPHLTLPFNWTHCFDPQIQAIVSSPCHNSLILPPFSLSPVPTLGSRSRRAVPVAVWLVSALAMGAGVAGGITGSMSLASGKSLLHEVDKDISQLTQAIVKNHKNLLKIAQYAAQNRRGLDLLFWEQGGLCKALQEQCRFPNITNSHVPILQERPPLENRVLTGWGLNWDLGLSQWAREALQTGITLVALLLLVILAGPCILRQLRHLPSRVRYPHYSLIKPESSL
With B1 the “stoichiometry N” value was 2.

From publication PMC2148214 (The Journal of Cell Biology, 1999)
